Assay results taken from patent publication US20140208457, “Nuclease Fusion Protein and Uses Thereof” (BASF PLANT SCIENCE COMPANY GMBH, published 2014).

T1: P(T46G,Y94F)-L(6)-Ss* PvuII/I-SceI fusion protein (artificial (Proteus vulgaris PvuII; …)
T1 chain: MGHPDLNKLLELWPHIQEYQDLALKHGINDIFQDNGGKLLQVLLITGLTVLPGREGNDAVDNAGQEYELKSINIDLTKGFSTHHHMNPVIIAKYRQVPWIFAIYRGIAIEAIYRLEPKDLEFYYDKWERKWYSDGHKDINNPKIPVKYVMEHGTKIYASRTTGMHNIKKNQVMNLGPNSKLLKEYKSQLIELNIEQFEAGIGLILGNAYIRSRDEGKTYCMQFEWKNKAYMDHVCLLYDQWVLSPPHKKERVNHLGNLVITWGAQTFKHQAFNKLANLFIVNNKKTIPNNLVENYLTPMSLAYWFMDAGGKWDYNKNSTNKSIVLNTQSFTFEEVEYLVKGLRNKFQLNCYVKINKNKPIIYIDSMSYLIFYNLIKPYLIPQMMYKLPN


Biological target: T1, P(T46G,Y94F)-L(6)-Ss* PvuII/I-SceI …
Test: EMSA; 1-150 nM enzyme, 2 nM DNA, KG buffer without Mg, room temperature
Settings: tags: C-terminal Strep-tag (vector pASK-IBA63b-plus), chain copies: 2 (inferred, PvuII homodimer)
Experimental: For the determination of binding constants of the fusion enzymes, EMSAs with radioactive labeled PCR-fragments were done. The shift fragments were created via PCR using [α³²P] dATP. One fragment contained the addressed site (S6P6S; A), just an I-SceI site (S; B) or just a PvuII site (P; C). 2 nM of the radiolabeled substrate were incubated with fusion enzyme at concentrations ranging from 1-150 nM in optimized KG Buffer without magnesium for 30 min at room temperature. After adding 1 μl 87% glycerol the samples were loaded onto a 6% polyacrylamid Tris-Acetate (pH 8.5) gel and run for 2 h at 10V/cm. The bands were visualized using the InstantImager system (Packard).

| Binder | binding result (label: 32P (EMSA PCR fragment)) | binding result (label: 32P (PCR fragment)) |
| --- | --- | --- |
| S6P6S tripartite site I-SceI-PvuII-I-SceI (dsDNA) DNA 1: TAGGGATAACAGGGTAATGGTACTCAGCTGATTCATATTACCCTGTTATCCCTA DNA 2: TAGGGATAACAGGGTAATATGAATCAGCTGAGTACCATTACCCTGTTATCCCTA | binds |  |
| S, I-SceI site only (dsDNA) DNA 1: TAGGGATAACAGGGTAAT DNA 2: ATTACCCTGTTATCCCTA |  | no binding |
